Laboratory results: the supplement of paper PMC9732359
± gives the uncertainty stated by the source.

Assay: protein stability index of a GFP-peptide fusion (yeast GPS) (PSI 1-4); higher = more stable; sorted into four equal gates, so the index is relative within each strain
Conditions: pdr5∆
How it was run: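 Yeast carrying a pooled library were grown to mid-log phase in leucine-free medium. Each library plasmid expresses Cherry and has a tiled 17-residue yeast protein peptide fused downstream of GFP. Cells were sorted into four equal gates by GFP/Cherry ratio, and plasmids from each gate were PCR-amplified, Illumina-sequenced and assigned to strains by barcode. Summing, across gates, the read frequency times the gate number gave each peptide's protein stability index.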
LPSPESLKTKLNSNIRA [SNF5] gave a protein stability index of 1.71 ± 0.043. For LPSWSLGKWYSKEDYET [ARP7], the protein stability index was 1.12 ± 0.14. With LPTPTPTEMEPDLDTEC [SWI1] the protein stability index was 3.09 ± 0.05. Work on LPTRYTLDVEAFKSVVS [RPL27A] yielded a protein stability index of 1.55 ± 0.039. With LQAFGESESTTNVYSKD [RPB3] the protein stability index was 2.1 ± 0.06. Work on LQDLISVYGLDDISRQV [ROX3] yielded a protein stability index of 2.88 ± 0.086. Sequence LQDVIALSIADDASSAE [RPC53] has a protein stability index of 1.57 ± 0.079. With LQEKNSGNLPLNELSAK [RPN13] the protein stability index was 3.2 ± 0.065. LQGDLTFTKKCLENARS [SIR4] showed a protein stability index of 3.11 ± 0.059. LQHELMISIIKLVTNVV [YML103C/NUP188] showed a protein stability index of 1.8 ± 0.048. In the case of LQKALTVKTNDELMVIY [RPN8], the protein stability index is reported as 1.89 ± 0.067. LQLNEAEEFVAGVSHGT [SMX3] showed a protein stability index of 2.96 ± 0.23. With LQLTTNTEQGDSDELGG [SNM1] the protein stability index was 3.55 ± 0.29. With LQPFYSQPTAAGGPDMT [DSN1] the protein stability index was 1.51 ± 0.047. LQPIKGESARRFQKCFP [RPC40] gave a protein stability index of 3 ± 0.25. Sequence LRAHTDDSRNPDCKIKI [PRE2] has a protein stability index of 2.92 ± 0.12. LRASFNKLSSILQNEHD [SRB4] gave a protein stability index of 2.22 ± 0.069. For LRDESLTVDNLSIAIVG [PRE5], the protein stability index was 2.26 ± 0.066. For LREHFKNTEEGKALVHH [QCR6], the protein stability index was 3.23 ± 0.1. LRKSRETVKLPRVSNQS [RRI2] gave a protein stability index of 3.42 ± 0.22. LRLFNAPDSEYLCFILS [SNF2] showed a protein stability index of 2.17 ± 0.044. For LRLKLFLYEILSSLKSF [SRB8], the protein stability index was 2.29 ± 0.082. Sequence LRLTDVTNSLSNEEKEK [GAL11] has a protein stability index of 3.17 ± 0.12. In the case of LRNNLNSLIEEINERSE [YCG1], the protein stability index is reported as 3.31 ± 0.095. LRPGRIDRKVEFSLPDL [RPT1] gave a protein stability index of 3.35 ± 0.098. LRRGNYAQRIGSGAPVY [HTA1] showed a protein stability index of 2.86 ± 0.17. For LRRIITDLNQDSAAIIA [GRR1], the protein stability index was 2.31 ± 0.068. Work on LRSIYHQFHDILEEKTD [NSL1] yielded a protein stability index of 2.07 ± 0.047. For LSAENIEERLVAIAEQD [SCL1], the protein stability index was 3.18 ± 0.089. Work on LSASWDKTLRLWDVATG [ASC1] yielded a protein stability index of 3.22 ± 0.12. With LSEIESLDEILLPANLL [SRP68] the protein stability index was 3.08 ± 0.052. LSESDKKSKLISLYLLN [RPN12] showed a protein stability index of 3 ± 0.1. In the case of LSFIQVRIDLGTIDKLQ [RPO31], the protein stability index is reported as 1.71 ± 0.056. LSFVDIVLSKAASALDE [SIR4] showed a protein stability index of 2.8 ± 0.071. Work on LSLDSDVKFPSNTTTQI [SMC3] yielded a protein stability index of 3.37 ± 0.14. Work on LSLHENYPQDEINAVFN [POP1] yielded a protein stability index of 3.11 ± 0.056. LSPSDQFAPAFLNTPNN [SSN2] gave a protein stability index of 2.23 ± 0.1. Sequence LSSETGIKLALDPNLIT [SRB4] has a protein stability index of 3 ± 0.054. For LSSGESNEIKVTNDLDT [SIR4], the protein stability index was 2.97 ± 0.12. LSSIEASLKIKNATDLQ [SMC3] gave a protein stability index of 2.06 ± 0.091. In the case of LSTLRMEADPSLHPLFE [RPN9], the protein stability index is reported as 2.33 ± 0.042. LSTRELAGKVGSIRVHK [RPC53] showed a protein stability index of 1.26 ± 0.11. Sequence LSVDDIRGAVGNSEAIP [RTT102] has a protein stability index of 3.38 ± 0.057. For LTCLPVPPPPVRPSISF [RPO21], the protein stability index was 2.44 ± 0.031. Work on LTFMTCNSLHIPQDFEN [ESC2] yielded a protein stability index of 2.46 ± 0.047. For LTFQPQQQTNALNGIDI [GRR1], the protein stability index was 3.07 ± 0.075. In the case of LTGEATANALPLPAVFS [RPL4A], the protein stability index is reported as 2.36 ± 0.047. LTHRLGGDTCSSDGALC [POP1] showed a protein stability index of 3.39 ± 0.084. In the case of LTIDDLGVASFHGTSTK [FAS2], the protein stability index is reported as 3.01 ± 0.071. LTKTTVNISAVDNTTEQ [YCG1] showed a protein stability index of 3.29 ± 0.14. With LTKYKEMERIVKNLTKY [SRP68] the protein stability index was 2.85 ± 0.073. LTLRKAKAPSGLDQSRI [FAS1] gave a protein stability index of 2.98 ± 0.11. Sequence LTLYLFQDYLTQQAVNL [IRR1] has a protein stability index of 1.91 ± 0.067. LTNDTFEKKLSIIKAKL [YML103C/NUP188] gave a protein stability index of 2.99 ± 0.23. In the case of LTNILRMMGCVKKQKSA [FAS2], the protein stability index is reported as 2.1 ± 0.078. LTPNEIKELEHLHDAVF [SWP82] gave a protein stability index of 3.18 ± 0.075. For LTVAMYINSDSVNPAML [RPO31], the protein stability index was 2.47 ± 0.11. Sequence LVDILPPDSDSSISVMG [RPT3] has a protein stability index of 2.27 ± 0.063. LVEAAKLLKIPKFISEA [YDL116W/NUP84] gave a protein stability index of 2.61 ± 0.064. Sequence LVEEKTPGLTFNAIDLA [RPC82] has a protein stability index of 3.29 ± 0.11. With LVIGIFKRDLLREKEDK [YJL039C/NUP192] the protein stability index was 2.28 ± 0.11. For LVKALEDIMVHYDNTTR [RPO21], the protein stability index was 1.91 ± 0.062. LVLLNGRLRNKSHKQTI [RPP1] showed a protein stability index of 2.85 ± 0.059. For LVLYDAENDVIEATDLG [BRR2], the protein stability index was 3.26 ± 0.12. In the case of LVQLEPHLFVNGDLTVS [SSN2], the protein stability index is reported as 1.9 ± 0.069. With LVQLKKFSDLKFILQIL [YML103C/NUP188] the protein stability index was 1.91 ± 0.075. LVSANNDNNSPHTPVTR [YLR018C/POM34] showed a protein stability index of 2.85 ± 0.072. Sequence LVSSYLNKSDLLDKYGK [YML103C/NUP188] has a protein stability index of 3.13 ± 0.058. In the case of LVVRFTNKDIICQIISS [RPL5], the protein stability index is reported as 1.79 ± 0.062. With LWDQDIAIAGTGQIEGL [COR1] the protein stability index was 3.37 ± 0.077. With LWINYIKELLNITKNLK [POP4] the protein stability index was 1.56 ± 0.062. Sequence LWSGKQILSVAIPNGIH [RPO21] has a protein stability index of 1.59 ± 0.051. Work on LYDRPLKPDLNKITNQG [NAS6] yielded a protein stability index of 3.42 ± 0.1. For LYEKDIVPSMTHLEIEP [RET1], the protein stability index was 2.65 ± 0.089. For LYGLNLTLRKAKAPSGL [FAS1], the protein stability index was 2.17 ± 0.12. LYKIFSYALSMEKDKLK [SNU114] gave a protein stability index of 1.33 ± 0.052. In the case of LYPDSSSFKKNLLKFIT [RPN3], the protein stability index is reported as 1.26 ± 0.069. In the case of LYQTYHVLVGDLIKFSA [FAS1], the protein stability index is reported as 2.43 ± 0.052. Sequence LYSGLIIDEIITQMRVN [RPC82] has a protein stability index of 2.36 ± 0.094. LYTLVINDAGKAKKLIQ [RPL38] showed a protein stability index of 2.19 ± 0.098. Work on MACNFQFPEIAYPGKLI [CSL4] yielded a protein stability index of 2.9 ± 0.12. For MADLQKQENSSRFTNVS [YMR153W/NUP53], the protein stability index was 3.1 ± 0.14. MAGLMHFKKPDITVHGE [RRP45] gave a protein stability index of 2.14 ± 0.13. Sequence MAGSQFENGNITGEDEV [RRP45] has a protein stability index of 3.08 ± 0.1. In the case of MAIEIINDIRDDDIEKQ [YCG1], the protein stability index is reported as 3.07 ± 0.16. MAKTLKDLDGWQVIITD [SIR3] gave a protein stability index of 2.4 ± 0.12. Sequence MAKVHGSLARAGKVKSQ [RPS30A] has a protein stability index of 2.7 ± 0.068. In the case of MAPYLPGSRASSRFIKG [RPN2], the protein stability index is reported as 2.66 ± 0.064. With MASNEVLVLRGTLEGHN [ASC1] the protein stability index was 2.22 ± 0.16. In the case of MCGVIVKQYNKKWPQFY [SIN4], the protein stability index is reported as 1.99 ± 0.096. Sequence MDKPLNFRILKSFTNDK [SRB5] has a protein stability index of 3.11 ± 0.059. With MENIKKSIDSKTPEEVE [ISW2] the protein stability index was 3.09 ± 0.23. Sequence MENILQRCKSNAISLQL [YIL149C/MLP2] has a protein stability index of 2 ± 0.048. In the case of MESEEVPLTKRYQHLEK [PCI8], the protein stability index is reported as 3.07 ± 0.067. MEYLSGGEKTVAALALL [SMC1] showed a protein stability index of 2.41 ± 0.11. In the case of MFKLGNFESPVLKELSR [YLR018C/POM34], the protein stability index is reported as 3.37 ± 0.23. MFNPLHESYCLPMDTNL [YMR129W/POM152] showed a protein stability index of 2.83 ± 0.055. In the case of MFQSQSQLQPQPQPQPQ [YDL088C/ASM4], the protein stability index is reported as 2.49 ± 0.048. With MGDNSQLDFTEFDEQYG [SNF2] the protein stability index was 3.15 ± 0.067. In the case of MGPLYQNFAEFMTKLLE [IRR1], the protein stability index is reported as 1.82 ± 0.11. For MHALKNRSEQNGQEQQG [RGR1], the protein stability index was 3.06 ± 0.21.
